# Results reported in patent publication US20250361268A1, “NOVEL ANTI-INFLAMMATORY PEPTIDE AND USE THEREOF” (NOVACELL TECHNOLOGY INC., priority 2022, published 2025).
# T1: FPR1 (UniProt P21462 1-350, limits assumed)
# T1 sequence (looked up): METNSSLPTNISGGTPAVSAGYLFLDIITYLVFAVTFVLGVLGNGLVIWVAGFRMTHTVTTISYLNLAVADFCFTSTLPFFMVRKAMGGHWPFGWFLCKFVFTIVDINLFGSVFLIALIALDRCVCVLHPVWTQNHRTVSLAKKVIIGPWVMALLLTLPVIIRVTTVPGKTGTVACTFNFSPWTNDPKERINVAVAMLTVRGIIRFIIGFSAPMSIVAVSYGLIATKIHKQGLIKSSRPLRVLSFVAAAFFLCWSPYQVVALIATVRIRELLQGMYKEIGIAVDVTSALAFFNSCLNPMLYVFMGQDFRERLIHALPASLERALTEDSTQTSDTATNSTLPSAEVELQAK
# T2: formyl peptide receptor 2 (FPR2) (UniProt P25090 1-351, limits assumed)
# T2 sequence (looked up): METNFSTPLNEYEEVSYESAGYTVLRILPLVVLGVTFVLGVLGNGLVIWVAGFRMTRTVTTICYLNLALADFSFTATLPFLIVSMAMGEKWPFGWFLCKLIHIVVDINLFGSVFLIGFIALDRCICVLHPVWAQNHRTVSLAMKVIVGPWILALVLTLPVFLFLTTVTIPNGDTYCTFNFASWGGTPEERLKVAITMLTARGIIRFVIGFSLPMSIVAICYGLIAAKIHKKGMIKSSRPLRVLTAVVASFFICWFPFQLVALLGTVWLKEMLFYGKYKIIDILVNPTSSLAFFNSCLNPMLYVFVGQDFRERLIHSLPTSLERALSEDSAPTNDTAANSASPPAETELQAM
# B1: peptide of SEQ ID NO 37 (peptide)
# peptide: HWKYKYM
# HELM: PEPTIDE1{[CCCC(=O)[*:2]].H.W.K.Y.K.Y.[dM].[am]}$$$$V2.0
# SMILES: CCCC(=O)N[C@@H](Cc1c[nH]cn1)C(=O)N[C@@H](Cc1c[nH]c2ccccc12)C(=O)N[C@@H](CCCCN)C(=O)N[C@@H](Cc1ccc(O)cc1)C(=O)N[C@@H](CCCCN)C(=O)N[C@@H](Cc1ccc(O)cc1)C(=O)N[C@H](CCSC)C(N)=O
# B2: peptide of SEQ ID NO 35 (peptide)
# peptide: WRYKYM
# HELM: PEPTIDE1{W.R.Y.K.Y.[dM].[am]}$$$$V2.0; N-terminus assumed
# SMILES: CSCC[C@@H](NC(=O)[C@H](Cc1ccc(O)cc1)NC(=O)[C@H](CCCCN)NC(=O)[C@H](Cc1ccc(O)cc1)NC(=O)[C@H](CCCNC(=N)N)NC(=O)[C@@H](N)Cc1c[nH]c2ccccc12)C(N)=O
# B3: peptide of SEQ ID NO 30 (peptide)
# peptide: RMRYRVM
# HELM: PEPTIDE1{R.M.R.Y.R.V.[dM].[am]}$$$$V2.0; N-terminus assumed
# SMILES: CSCC[C@H](NC(=O)[C@@H](N)CCCNC(=N)N)C(=O)N[C@@H](CCCNC(=N)N)C(=O)N[C@@H](Cc1ccc(O)cc1)C(=O)N[C@@H](CCCNC(=N)N)C(=O)N[C@H](C(=O)N[C@H](CCSC)C(N)=O)C(C)C
# B4: peptide of SEQ ID NO 41 (peptide)
# peptide: MRYKYM
# HELM: PEPTIDE1{M.R.Y.K.Y.[dM].[am]}$$$$V2.0; N-terminus assumed
# SMILES: CSCC[C@H](N)C(=O)N[C@@H](CCCNC(=N)N)C(=O)N[C@@H](Cc1ccc(O)cc1)C(=O)N[C@@H](CCCCN)C(=O)N[C@@H](Cc1ccc(O)cc1)C(=O)N[C@H](CCSC)C(N)=O
# B5: peptide of SEQ ID NO 38 (peptide)
# peptide: RMRYKYM
# HELM: PEPTIDE1{R.M.R.Y.K.Y.[dM].[am]}$$$$V2.0; N-terminus assumed
# SMILES: CSCC[C@H](NC(=O)[C@@H](N)CCCNC(=N)N)C(=O)N[C@@H](CCCNC(=N)N)C(=O)N[C@@H](Cc1ccc(O)cc1)C(=O)N[C@@H](CCCCN)C(=O)N[C@@H](Cc1ccc(O)cc1)C(=O)N[C@H](CCSC)C(N)=O
# B6: peptide of SEQ ID NO 36 (peptide)
# peptide: KWKYKYM
# HELM: PEPTIDE1{[ac].K.W.K.Y.K.Y.[dM].[am]}$$$$V2.0
# SMILES: CSCC[C@@H](NC(=O)[C@H](Cc1ccc(O)cc1)NC(=O)[C@H](CCCCN)NC(=O)[C@H](Cc1ccc(O)cc1)NC(=O)[C@H](CCCCN)NC(=O)[C@H](Cc1c[nH]c2ccccc12)NC(=O)[C@H](CCCCN)NC(C)=O)C(N)=O
# B7: peptide of SEQ ID NO 3 (peptide)
# peptide: WRYKVM
# HELM: PEPTIDE1{W.R.Y.K.V.[dM].[am]}$$$$V2.0; N-terminus assumed
# SMILES: CSCC[C@@H](NC(=O)[C@@H](NC(=O)[C@H](CCCCN)NC(=O)[C@H](Cc1ccc(O)cc1)NC(=O)[C@H](CCCNC(=N)N)NC(=O)[C@@H](N)Cc1c[nH]c2ccccc12)C(C)C)C(N)=O
# B8: peptide of SEQ ID NO 33 (peptide)
# peptide: RWRYKYM
# HELM: PEPTIDE1{[ac].R.W.R.Y.K.Y.[dM].[am]}$$$$V2.0
# SMILES: CSCC[C@@H](NC(=O)[C@H](Cc1ccc(O)cc1)NC(=O)[C@H](CCCCN)NC(=O)[C@H](Cc1ccc(O)cc1)NC(=O)[C@H](CCCNC(=N)N)NC(=O)[C@H](Cc1c[nH]c2ccccc12)NC(=O)[C@H](CCCNC(=N)N)NC(C)=O)C(N)=O
# Biological target: T1, FPR1
# Assay: cell-based or functional assay
row,Binder,EC50 for [Ca2+]
1,B1,> 10 µM
2,B2,> 10 µM
3,B3,> 10 µM
4,B4,> 10 µM
5,B5,> 10 µM
6,B6,> 10 µM
7,B7,> 10 µM
8,B8,> 10 µM

# Biological target: T2, formyl peptide receptor 2 (FPR2)
# Assay: cell-based or functional assay
row,Binder,EC50 for [Ca2+]
1,B1,< 0.01 µM
2,B2,< 0.01 µM
3,B3,< 0.01 µM
4,B4,< 0.01 µM
5,B5,< 0.01 µM
6,B6,< 0.01 µM
7,B7,< 0.01 µM
8,B8,< 0.01 µM
